Experimental data from PMC6673701, “Structure of Myosin VI/Tom1 complex reveals a cargo recognition mode of Myosin VI for tethering” (Nature Communications, 2019).

B1: Tom1(215–493) (domain or fragment, human, UniProt O60784-2 215-493, looked up)
chain: EQIGKLRSELEMVSGNVRVMSEMLTELVPTQAEPADLELLQELNRTCRAMQQRVLELIPQIANEQLTEELLIVNDNLNNVFLRHERFERFRTGQTTKAPSEAEPAADLIDMGPDPAATGNLSSQLAGMNLGSSSVRAGLQSLEASGRLEDEFDMFALTRGSSLADQRKEVKYEAPQATDGLAGALDARQQSTGAIPVTQACLMEDIEQWLSTDVGNDAEEPKGVTSEGKFDKFLEERAKAADRLPNLSSPSAEGPPGPPSGPAPRKKTQEKDDDMLFAL
notes: source: E. coli BL21 (DE3), purified (Ni-NTA, SEC); not shown: thioredoxin, N-terminal, cleaved; His6, N-terminal, cleaved
B6: C-terminal cargo-binding domain (CBD) of Myosin VI (residues 1157–1285) (domain or fragment, human, UniProt Q9UM54-1 1157-1285, looked up)
chain: ARQREIEMNRQQRFFRIPFIRPADQYKDPQSKKKGWWYAHFDGPWIARQMELHPDKPPILLVAGKDDMEMCELNLEETGLTRKRGAEILPRQFEEIWERCGGIQYLQNAIESRQARPTYATAMLQSLLK
notes: monomer by light scattering and ultracentrifugation; 15N-labelled in some NMR experiments; also called C-terminal CBD of Myosin VI; source: E. coli BL21 (DE3), purified (Ni-NTA, SEC); not shown: thioredoxin, N-terminal, cleaved; His6, N-terminal, cleaved

Legend:
Details in all cases: both partners purified
[1] = biological target: B6; experiment: ITC; 25 °C, 20 mM Tris pH 7.9, 100 mM NaCl, 1 mM DTT; 50 µM protein in the cell, 500 µM in the syringe; one-site binding model
[2] = biological target: B6; experiment: SEC + SEC-MALS + AUC; analytical gel filtration, multi-angle light scattering (20 mM Tris-HCl pH 7.9, 100 mM NaCl, 1 mM DTT) and sedimentation velocity (20 °C) of each protein alone and of the complex
Tom1(215–493) = biological target: B1; experiment: ITC; 25 °C, 20 mM Tris pH 7.9, 100 mM NaCl, 1 mM DTT; 50 µM protein in the cell, 500 µM in the syringe; one-site binding model

In the case of B1, the dH [1] is reported as -7.61 ± 0.09 kcal/mol and the “stoichiometry N” value [1] is reported as 1.44 ± 0.01.

B2: Tom1(392–493) (domain or fragment, human, UniProt O60784-2 392-493, looked up)
chain: TDGLAGALDARQQSTGAIPVTQACLMEDIEQWLSTDVGNDAEEPKGVTSEGKFDKFLEERAKAADRLPNLSSPSAEGPPGPPSGPAPRKKTQEKDDDMLFAL
notes: 15N-labelled in one NMR titration; source: E. coli BL21 (DE3), purified (Ni-NTA, SEC); not shown: thioredoxin, N-terminal, cleaved; His6, N-terminal, cleaved
In the case of B2, the Kd [1] is reported as 930 nM, the dH [1] is reported as -9.9 ± 0.11 kcal/mol and the “stoichiometry N” value [1] is reported as 1.12 ± 0.01.

B3: Tom1(392–463) (domain or fragment, human, UniProt O60784-2 392-463, looked up)
chain: TDGLAGALDARQQSTGAIPVTQACLMEDIEQWLSTDVGNDAEEPKGVTSEGKFDKFLEERAKAADRLPNLSS
notes: as for B2
B3 was tested, and the Kd [1] was 760 nM, the dH [1] was -10.6 ± 0.16 kcal/mol and the “stoichiometry N” value [1] was 0.91 ± 0.01.

B4: Tom1(437–493) (domain or fragment, human, UniProt O60784-2 437-493, looked up)
chain: GVTSEGKFDKFLEERAKAADRLPNLSSPSAEGPPGPPSGPAPRKKTQEKDDDMLFAL
notes: as for B1
In the case of B4, the Kd [1] is reported as 760 nM, the dH [1] is reported as -12.7 ± 0.11 kcal/mol and the “stoichiometry N” value [1] is reported as 0.83 ± 0.01.

B5: Tom1(437–463), Myosin VI-binding motif (domain or fragment, human, UniProt O60784-2 437-463, looked up)
chain: GVTSEGKFDKFLEERAKAADRLPNLSS
notes: monomer by light scattering and ultracentrifugation; also called Tom1 MBM; source: E. coli BL21 (DE3), purified (Ni-NTA, SEC); not shown: thioredoxin, N-terminal, cleaved; His6, N-terminal, cleaved
With B5 the Kd [1] was 670 nM, the dH [1] was -14.9 ± 0.1 kcal/mol and the “stoichiometry N” value [1] was 0.74 ± 0.01. For the same binder, the “stoichiometry N” value [2] was 1.

B6 was tested, and the Kd (Tom1(215–493)) was 2130 nM.
